B1: PD-L2(wt)-Fc (heterodimer) (Fc fusion)
chain 1: LFTVTVPKELYIIEHGSNVTLECNFDTGSHVNLGAITASLQKVENDTSPHRERATLLEEQLPLGKASFHIPQVQVRDEGQYQCIIIYGVAWDYKYLTLKVKASYRKINTHILKVPETDEVELTCQATGYPLAEVSWPNVSVPANTSHSRTPEGLYQVTSVLRLKPPPGRNFSCVFWNTHVRELTLASIDLQSQMEPRTHPTDKTHTCPPCPAPEDEGGPSVFLFPPKPKDTLMISRTPEVTCVVVDVSHEDPEVKFNWYVDGVEVHNAKTKPREEQYNSTYRVVSVLTVLHQDWLNGKEYKCKVSNKALPAPIEKTISKAKGQPREPQVYVYPPSREEMTKNQVSLTCLVKGFYPSDIAVEWESNGQPENNYKTTPPVLDEDGSFALVSKLTVDKSRWQQGNVFSCSVMHEALHNHYTQKSLSLSPGK
chain 2: LFTVTVPKELYIIEHGSNVTLECNFDTGSHVNLGAITASLQKVENDTSPHRERATLLEEQLPLGKASFHIPQVQVRDEGQYQCIIIYGVAWDYKYLTLKVKASYRKINTHILKVPETDEVELTCQATGYPLAEVSWPNVSVPANTSHSRTPEGLYQVTSVLRLKPPPGRNFSCVFWNTHVRELTLASIDLQSQMEPRTHPTDKTHTCPPCPAPEKKGGPSVFLFPPKPKDTLMISRTPEVTCVVVDVSHEDPEVKFNWYVDGVEVHNAKTKPREEQYNSTYRVVSVLTVLHQDWLNGKEYKCKVSNKALPAPIEKTISKAKGQPREPQVYVLPPSREEMTKNQVSLLCLVKGFYPSDIAVEWESNGQPENRYMTWPPVLDSDGSFFLYSKLTVDKSRWQQGNVFSCSVMHEALHNHYTQKSLSLSPGK
B2: IL-12(E59A/F60A)/PD-L2(S58V)-Fc (IL-12 at hinge) (Fc fusion)
chain 1: LFTVTVPKELYIIEHGSNVTLECNFDTGSHVNLGAITAVLQKVENDTSPHRERATLLEEQLPLGKASFHIPQVQVRDEGQYQCIIIYGVAWDYKYLTLKVKASYRKINTHILKVPETDEVELTCQATGYPLAEVSWPNVSVPANTSHSRTPEGLYQVTSVLRLKPPPGRNFSCVFWNTHVRELTLASIDLQSQMEPRTHPTGGGGSGGGIWELKKDVYVVELDWYPDAPGEMVVLTCDTPEEDGITWTLDQSSEVLGSGKTLTIQVKAAGDAGQYTCHKGGEVLSHSLLLLHKKEDGIWSTDILKDQKEPKNKTFLRCEAKNYSGRFTCWWLTTISTDLTFSVKSSRGSSDPQGVTCGAATLSAERVRGDNKEYEYSVECQEDSACPAAEESLPIEVMVDAVHKLKYENYTSSFFIRDIIKPDPPKNLQLKPLKNSRQVEVSWEYPDTWSTPHSYFSLTFCVQVQGKSKREKKDRVFTDKTSATVICRKNASISVRAQDRYYSSSWSEWASVPCSGGGGSGGGSGGGGSRNLPVATPDPGMFPCLHHSQNLLRAVSNMLQKARQTLEFYPCTSEEIDHEDITKDKTSTVEACLPLELTKNESCLNSRETSFITNGSCLASRKTSFMMALCLSSIYEDLKMYQVEFKTMNAKLLMDPKRQIFLDQNMLAVIDELMQALNFNSETVPQKSSLEEPDFYKTKIKLCILLHAFRIRAVTIDRVMSYLNASGGGGSGGGDKTHTCPPCPAPEDEGGPSVFLFPPKPKDTLMISRTPEVTCVVVDVSHEDPEVKFNWYVDGVEVHNAKTKPREEQYNSTYRVVSVLTVLHQDWLNGKEYKCKVSNKALPAPIEKTISKAKGQPREPQVYVYPPSREEMTKNQVSLTCLVKGFYPSDIAVEWESNGQPENNYKTTPPVLDEDGSFALVSKLTVDKSRWQQGNVFSCSVMHEALHNHYTQKSLSLSPGK
chain 2: LFTVTVPKELYIIEHGSNVTLECNFDTGSHVNLGAITAVLQKVENDTSPHRERATLLEEQLPLGKASFHIPQVQVRDEGQYQCIIIYGVAWDYKYLTLKVKASYRKINTHILKVPETDEVELTCQATGYPLAEVSWPNVSVPANTSHSRTPEGLYQVTSVLRLKPPPGRNFSCVFWNTHVRELTLASIDLQSQMEPRTHPTGGGGSGGGDKTHTCPPCPAPEKKGGPSVFLFPPKPKDTLMISRTPEVTCVVVDVSHEDPEVKFNWYVDGVEVHNAKTKPREEQYNSTYRVVSVLTVLHQDWLNGKEYKCKVSNKALPAPIEKTISKAKGQPREPQVYVLPPSREEMTKNQVSLLCLVKGFYPSDIAVEWESNGQPENRYMTWPPVLDSDGSFFLYSKLTVDKSRWQQGNVFSCSVMHEALHNHYTQKSLSLSPGK
notes: also called IL-12(E59A/F60A)/PD-L2(mut2)-Fc
B3: IL-12(E59A/F60A)/PD-L1(mut2)-Fc (IL-12 at hinge) (Fc fusion)
chain 1: FTVTVPKDLYVVEYGSNMTIECKFPVEKQLDLAALQVYWMMEDKNIIQFVHGEEDLKVQHSSYRQRARLLKDQLSLGNAALQITDVKLQDAGVYTCLIAYKGADYKRITVKVNAPYNKINQRILVVDPVTSEHELTCQAEGYPKAEVIWTSSDHQVLSGKTTTTNSKREEKLFNVTSTLRINTTTNEIFYCTFRRLDPEENHTAELVIPELPLAHPPNERGGGGSGGGIWELKKDVYVVELDWYPDAPGEMVVLTCDTPEEDGITWTLDQSSEVLGSGKTLTIQVKAAGDAGQYTCHKGGEVLSHSLLLLHKKEDGIWSTDILKDQKEPKNKTFLRCEAKNYSGRFTCWWLTTISTDLTFSVKSSRGSSDPQGVTCGAATLSAERVRGDNKEYEYSVECQEDSACPAAEESLPIEVMVDAVHKLKYENYTSSFFIRDIIKPDPPKNLQLKPLKNSRQVEVSWEYPDTWSTPHSYFSLTFCVQVQGKSKREKKDRVFTDKTSATVICRKNASISVRAQDRYYSSSWSEWASVPCSGGGGSGGGSGGGGSRNLPVATPDPGMFPCLHHSQNLLRAVSNMLQKARQTLEFYPCTSEEIDHEDITKDKTSTVEACLPLELTKNESCLNSRETSFITNGSCLASRKTSFMMALCLSSIYEDLKMYQVEFKTMNAKLLMDPKRQIFLDQNMLAVIDELMQALNFNSETVPQKSSLEEPDFYKTKIKLCILLHAFRIRAVTIDRVMSYLNASGGGGSGGGDKTHTCPPCPAPEDEGGPSVFLFPPKPKDTLMISRTPEVTCVVVDVSHEDPEVKFNWYVDGVEVHNAKTKPREEQYNSTYRVVSVLTVLHQDWLNGKEYKCKVSNKALPAPIEKTISKAKGQPREPQVYVYPPSREEMTKNQVSLTCLVKGFYPSDIAVEWESNGQPENNYKTTPPVLDEDGSFALVSKLTVDKSRWQQGNVFSCSVMHEALHNHYTQKSLSLSPGK
chain 2: FTVTVPKDLYVVEYGSNMTIECKFPVEKQLDLAALQVYWMMEDKNIIQFVHGEEDLKVQHSSYRQRARLLKDQLSLGNAALQITDVKLQDAGVYTCLIAYKGADYKRITVKVNAPYNKINQRILVVDPVTSEHELTCQAEGYPKAEVIWTSSDHQVLSGKTTTTNSKREEKLFNVTSTLRINTTTNEIFYCTFRRLDPEENHTAELVIPELPLAHPPNERGGGGSGGGDKTHTCPPCPAPEKKGGPSVFLFPPKPKDTLMISRTPEVTCVVVDVSHEDPEVKFNWYVDGVEVHNAKTKPREEQYNSTYRVVSVLTVLHQDWLNGKEYKCKVSNKALPAPIEKTISKAKGQPREPQVYVLPPSREEMTKNQVSLLCLVKGFYPSDIAVEWESNGQPENRYMTWPPVLDSDGSFFLYSKLTVDKSRWQQGNVFSCSVMHEALHNHYTQKSLSLSPGK
notes: also called IL-12(E59A/F60A)/PD-L1(I54Q/E58M/R113T/M115L/S117A/G119K)-Fc

What was measured:
human PD-1 [1] = molecular target: T1, human PD-1 (human, UniProt Q15116 25-167, limits assumed); assay: PD-L2-Fc format, method not stated
T1 construct: also called hPD-1

mouse PD-1 [2] = molecular target: T2, mouse PD-1 (mouse, UniProt Q02242 25-167, limits assumed); assay: PD-L2-Fc format, method not stated
T2 construct: also called mPD-1
T2 sequence (looked up): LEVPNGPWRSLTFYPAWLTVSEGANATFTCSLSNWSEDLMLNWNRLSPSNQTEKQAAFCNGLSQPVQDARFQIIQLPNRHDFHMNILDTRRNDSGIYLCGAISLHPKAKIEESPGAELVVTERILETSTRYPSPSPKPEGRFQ

human PD-1 [3] = molecular target: T1, human PD-1; assay: rounded restatement of Tables 14 and 15
mouse PD-1 [4] = molecular target: T2, mouse PD-1; assay: rounded restatement of Tables 14 and 15
mouse PD-1 [5] = molecular target: T2, mouse PD-1; assay: same value as Table 15 (measured in PD-L2-Fc format)
[6] = molecular target: human PD-1 on cells (HEK-PD-1 reporter cells; activated PBMC) (human, UniProt Q15116 25-288); assay: cell-based or functional assay
[7] = molecular target: human IL-12 receptor complex (IL-12Rβ1 and IL-12Rβ2) (human, UniProt P42701 24-662; Q99665 24-862); assay: cell-based or functional assay
[8] = molecular target: T3, human IL-2 receptor (IL-2Rα, IL-2Rβ, IL-2Rγ) (human, UniProt P01589 22-272; P14784 27-551; P31785 23-369); assay: cell-based or functional assay
T3 sequence (looked up) 1: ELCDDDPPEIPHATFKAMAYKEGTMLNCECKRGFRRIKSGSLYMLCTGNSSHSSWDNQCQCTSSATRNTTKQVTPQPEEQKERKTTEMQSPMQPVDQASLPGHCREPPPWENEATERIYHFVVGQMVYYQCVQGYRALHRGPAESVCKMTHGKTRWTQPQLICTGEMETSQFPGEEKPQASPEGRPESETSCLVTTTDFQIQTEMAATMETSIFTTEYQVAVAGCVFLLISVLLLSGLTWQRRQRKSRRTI
T3 sequence (looked up) 2: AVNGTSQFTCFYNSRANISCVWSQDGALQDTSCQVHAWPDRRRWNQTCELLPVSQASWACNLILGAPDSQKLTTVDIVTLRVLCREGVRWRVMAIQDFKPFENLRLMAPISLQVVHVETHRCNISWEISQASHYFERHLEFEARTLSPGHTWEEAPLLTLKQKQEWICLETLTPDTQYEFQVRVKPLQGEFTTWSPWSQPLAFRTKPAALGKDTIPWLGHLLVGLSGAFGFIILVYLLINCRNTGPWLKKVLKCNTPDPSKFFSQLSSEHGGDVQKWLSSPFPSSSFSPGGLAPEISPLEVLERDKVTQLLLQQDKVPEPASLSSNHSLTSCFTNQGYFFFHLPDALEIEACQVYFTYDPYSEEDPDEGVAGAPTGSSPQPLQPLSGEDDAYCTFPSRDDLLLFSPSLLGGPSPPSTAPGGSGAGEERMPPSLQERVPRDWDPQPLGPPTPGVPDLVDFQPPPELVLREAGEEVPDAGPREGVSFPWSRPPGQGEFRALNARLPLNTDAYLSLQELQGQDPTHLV
T3 sequence (looked up) 3: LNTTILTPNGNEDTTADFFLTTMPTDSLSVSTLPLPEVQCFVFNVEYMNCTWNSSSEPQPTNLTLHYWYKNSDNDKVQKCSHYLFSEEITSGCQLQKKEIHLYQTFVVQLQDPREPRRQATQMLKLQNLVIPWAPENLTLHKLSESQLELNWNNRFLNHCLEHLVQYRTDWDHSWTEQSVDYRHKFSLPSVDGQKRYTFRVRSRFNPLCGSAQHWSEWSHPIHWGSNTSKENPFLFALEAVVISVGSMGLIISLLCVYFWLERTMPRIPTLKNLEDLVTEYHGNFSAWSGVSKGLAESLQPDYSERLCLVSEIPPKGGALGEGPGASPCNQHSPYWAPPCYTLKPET

mouse PD-1 [9] = molecular target: T2, mouse PD-1; assay: same value as Table 14 (measured in PD-L1-Fc format)

T1 sequence (Q15116 25-167 limits assumed): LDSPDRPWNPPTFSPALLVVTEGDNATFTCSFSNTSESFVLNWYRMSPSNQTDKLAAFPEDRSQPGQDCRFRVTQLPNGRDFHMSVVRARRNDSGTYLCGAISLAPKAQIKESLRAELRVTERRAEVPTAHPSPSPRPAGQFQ
human PD-1 on cells (HEK-PD-1 reporter cells; activated PBMC), sequence (Q15116 25-288): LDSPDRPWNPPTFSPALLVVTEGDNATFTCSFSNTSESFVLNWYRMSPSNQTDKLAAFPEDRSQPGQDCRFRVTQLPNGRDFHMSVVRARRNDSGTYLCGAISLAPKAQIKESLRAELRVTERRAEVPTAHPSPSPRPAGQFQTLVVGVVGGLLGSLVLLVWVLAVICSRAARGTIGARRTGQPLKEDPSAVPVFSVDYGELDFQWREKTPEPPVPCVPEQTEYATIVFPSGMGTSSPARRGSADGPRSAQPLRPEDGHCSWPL
human IL-12 receptor complex (IL-12Rβ1 and IL-12Rβ2), sequence (Q99665 24-862, chain 2 of 2, other chains not shown): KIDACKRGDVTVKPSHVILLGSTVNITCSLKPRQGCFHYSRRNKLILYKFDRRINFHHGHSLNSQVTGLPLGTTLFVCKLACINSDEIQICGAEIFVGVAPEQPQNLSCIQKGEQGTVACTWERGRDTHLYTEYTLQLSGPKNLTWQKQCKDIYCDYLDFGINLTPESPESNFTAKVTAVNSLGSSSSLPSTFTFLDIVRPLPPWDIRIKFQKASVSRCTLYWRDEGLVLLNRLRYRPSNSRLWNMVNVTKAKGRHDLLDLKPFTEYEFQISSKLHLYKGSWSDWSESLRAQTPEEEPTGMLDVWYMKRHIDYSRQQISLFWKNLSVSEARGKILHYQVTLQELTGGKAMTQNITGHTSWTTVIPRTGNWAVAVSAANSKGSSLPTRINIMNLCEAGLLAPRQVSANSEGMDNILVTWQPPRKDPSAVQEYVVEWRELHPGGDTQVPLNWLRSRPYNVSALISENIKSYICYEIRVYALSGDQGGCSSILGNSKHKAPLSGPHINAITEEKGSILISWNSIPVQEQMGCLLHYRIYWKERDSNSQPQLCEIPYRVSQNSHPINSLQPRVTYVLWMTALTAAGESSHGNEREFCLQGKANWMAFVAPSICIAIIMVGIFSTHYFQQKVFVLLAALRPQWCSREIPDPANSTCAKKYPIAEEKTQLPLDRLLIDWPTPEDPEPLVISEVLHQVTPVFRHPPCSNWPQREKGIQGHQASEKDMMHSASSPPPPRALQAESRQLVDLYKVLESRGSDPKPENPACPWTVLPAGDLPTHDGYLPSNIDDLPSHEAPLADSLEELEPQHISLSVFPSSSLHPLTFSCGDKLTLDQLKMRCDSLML

Binder	Kd (human PD-1 [1]) [nM]	Kd (mouse PD-1 [2]) [nM]	Kd (human PD-1 [3]) [nM]	Kd (mouse PD-1 [4]) [nM]	Kd (mouse PD-1 [5]) [nM]	IL-2 signal transduction, HEK-IL-2-PD-1 [6] [%]	IL-12 signal transduction, HEK-IL-12-PD-1 [6] [%]	IL-12 signal transduction, HEK-IL-12 [7] [%]	IL-2 signal transduction, HEK-IL-2 [8] [%]	Kd (mouse PD-1 [9]) [nM]
B1	1200	980								
B2			~100	~100	230					
B3			~100	~100		< 0.1	24	< 0.2	< 0.1	120
